The values below come from patent US20200062847A1 (XIANGTAN TENGHUA BIOSCIENCE, published 2020).

Assay [1] addresses T1, recombinant human PD-1 (human, UniProt Q15116 25-167, limits assumed).
T1 construct: also called human PD-1 protein; soluble PD-1
The assay is described as follows: competition ELISA on coated human PD-1, antibody titrated against 50 ng/ml Nivolumab as competitor; EC50 estimated at half-maximal absorbance.
Method: The assay was conducted essentially as follows. […] HRP-conjugated anti-human antibody was added and incubated.

For assay [2], the target named is T1, recombinant human PD-1. The assay is described as follows: SPR (Biacore), antibody captured via anti-human IgG.
Method: This technology allows the label-free determination of the microscopic rate constants for binding (kₐ) and dissociation (kd) of a ligand to a receptor. […] The kinetic traces were evaluated with the Biacore™ T2000. The full set of these traces with increasing concentrations is taken together and is called a run. Two zero concentration samples (blank runs) were included in each analyte concentration series to allow double-referencing during data evaluation. The kinetic rate constants for association (kₐ) and dissociation (kd) as well as the dissociation equilibrium constant (KD) were calculated.
A further assay addresses T2, mouse PD-1 (mouse, UniProt Q02242 25-167, limits assumed).
T2 sequence (looked up): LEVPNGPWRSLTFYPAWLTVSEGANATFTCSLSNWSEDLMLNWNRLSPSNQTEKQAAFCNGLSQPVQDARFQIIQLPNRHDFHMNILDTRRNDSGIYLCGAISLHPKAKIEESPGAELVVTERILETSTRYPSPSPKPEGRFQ
In words: ELISA. On the technique in general: ELISA stands for enzyme-linked immunosorbent assay.

As a reminder, the EC50 is the midpoint of the concentration-response curve. As a reminder, the koff is the first-order rate constant of dissociation. As usually defined, the kon is a measure of how fast the partners come together.

T1 sequence (Q15116 25-167 limits assumed): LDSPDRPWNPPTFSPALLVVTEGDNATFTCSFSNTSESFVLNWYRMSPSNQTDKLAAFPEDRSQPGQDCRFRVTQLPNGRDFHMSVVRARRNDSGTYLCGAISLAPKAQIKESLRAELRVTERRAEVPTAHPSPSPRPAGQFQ

B1: Abs-h-923 (antibody, V domains shown)
VH: QVQLVQSGAEVKKPGASVKVSCKASGYTFTSYAMHWVRQAPGQRLEWMGWSNAGNGNTKYSQEFQGRVTITRDTSASTAYMELSSLRSEDMAVYYCARYWYFDLWGRGTLVTVSS
VL: EIALTQSPATLSLSPGERATLSCRASQSGSSFVAWYQQKPGQAPRLLIYANNKRETGIPARFSGSGSGTDFTLTISSLEPEDFAVYYCGTYTDSPPTFGQGTKVEIKR
Turning to B1, in the assay with recombinant human PD-1 [1], the concentration for a half-maximal effect (EC50) was 0.41 nM. In the assay with recombinant human PD-1 [2], the koff was 7.9e-06 s⁻¹ and the kon turned out to be 1.15e+06 M⁻¹ s⁻¹.

B2: Abs-r-924 (antibody, V domains shown)
VH: QESVKESGGGLVKPGDTLTLTCKVSGFSISSYGMHWVRQAPGKGLEWIGVISYDGSNKYYADSVKGRFTISRNTNQNTVTLKMTSLTADDTATYFCARYYYYYGMDVWGQGTLVTVSS
VL: EIVLTQTPSSVSAAVGSTVTINCRGSQSLSSYLAWYQQKPGQRPKLLIYDVSNRATGVPRRFKGSGSGTQFTLTISGVQADDAATYYCQQRTNWPRAFGGGTKVDVKG
notes: Rabbit recombinant antibody expressed in HEK293; also called rabbit anti-human-PD-1 recombinant antibody Abs-r-924
Consider B2, for which, in the assay with mouse PD-1, the binding result is “no binding”.

B3: Abs-h-924 (antibody, V domains shown)
VH: QVQLVESGGGVVQPGRSLRLSCAASGFTFSSYGMHWVRQAPGKGLEWVAVISYDGSNKYYADSVKGRFTISRDNSKNTLYLQMNSLRAEDTAVYYCARYYYYYGMDVWGQGTTVTVSS
VL: EIVLTQSPATLSLSPGERATISCRGSQSLSSYLAWYQQRPGQAPRLLIYDVSNRATGIPARFSGSGSGTDFTLTISGLEPEDFAVYYCQQRTNWPRAFGQGTKVEIKR
notes: also called humanized anti-human-PD-1 recombinant antibody Abs-h-924
In the case of B3, in the assay with recombinant human PD-1 [1], the concentration giving a half-maximal response (EC50) was 0.14 nM. Also, in the assay with recombinant human PD-1 [2], the off-rate (koff) came to 3.9e-06 s⁻¹ and the kon turned out to be 1.22e+06 M⁻¹ s⁻¹.

B4: Abs-h-925 (antibody, V domains shown)
VH: QVQLVDSGGGVVQPGRSLRLSCAASAFTFSSYAMHWVRQAPGKGLEWVAVISYDGSNKYYADSVKGRFTISRDNSKNTLYLQMNSLRAEDTAVYYCARYYYYYYMDVWGKGTTVTVSS
VL: EIVLTQSPATLSLSPGERATLSCRASQSVSSYLAWYQQKPGQAPRLLIYEASNRATGIPARFSGSGSGTDFTLTISSLEPEDFAVYYCQQRTNWPPAFGQGTKVEIKR
notes: also called humanized anti-human-PD-1 recombinant antibody Abs-h-925
As to B4, the EC50 in the assay with recombinant human PD-1 [1] was 0.15 nM. In the assay with recombinant human PD-1 [2], the off-rate constant (koff) is 3.2e-06 s⁻¹ and the kon was determined as 1.19e+06 M⁻¹ s⁻¹.
